# B1: Mothers against decapentaplegic homolog 4 (Homo sapiens), Q13485 (parent)
# chain: MDNMSITNTPTSNDACLSIVHSLMCHRQGGESETFAKRAIESLVKKLKEKKDELDSLITAITTNGAHPSKCVTIQRTLDGRLQVAGRKGFPHVIYARLWRWPDLHKNELKHVKYCQYAFDLKCDSVCVNPYHYERVVSPGIDLSGLTLQSNAPSSMMVKDEYVHDFEGQPSLSTEGHSIQTIQHPPSNRASTETYSTPALLAPSESNATSTANFPNIPVASTSQPASILGGSHSEGLLQIASGPQPGQQQNGFTGQPATYHHNSTTTWTGSRTAPYTPNLPHHQNGHLQHHPPMPPHPGHYWPVHNELAFQPPISNHPAPEYWCSIAYFEMDVQVGETFKVPSSCPIVTVDGYVDPSGGDRFCLGQLSNVHRTEAIERARLHIGKGVQLECKGEGDVWVRCLSDHAVFVQSYYLDREAGRAPGDAVHKIYPSAYIKVFDLRQCHRQMQQQAATAQAAAAAQAAAVAGNIPGPGSVGGIAPAISLSAAAGIGVDDLRRLCILRMSFVKGWGPDYPRQSIKETPCWIEIHLHRALQLLDEVLHTMPIADPQPLD
# partner: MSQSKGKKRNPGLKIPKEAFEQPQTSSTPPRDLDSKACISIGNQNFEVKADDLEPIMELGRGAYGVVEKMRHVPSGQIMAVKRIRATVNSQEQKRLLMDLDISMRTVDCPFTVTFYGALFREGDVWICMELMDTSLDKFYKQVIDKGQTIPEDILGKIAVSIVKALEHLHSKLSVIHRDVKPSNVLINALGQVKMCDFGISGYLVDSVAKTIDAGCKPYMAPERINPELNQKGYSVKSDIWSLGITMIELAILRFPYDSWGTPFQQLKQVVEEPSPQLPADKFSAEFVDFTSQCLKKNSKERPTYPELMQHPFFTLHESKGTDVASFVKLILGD
# B2: Mothers against decapentaplegic homolog 4 (Homo sapiens), Q13485 (parent)
# chain: B1 chain
# partner: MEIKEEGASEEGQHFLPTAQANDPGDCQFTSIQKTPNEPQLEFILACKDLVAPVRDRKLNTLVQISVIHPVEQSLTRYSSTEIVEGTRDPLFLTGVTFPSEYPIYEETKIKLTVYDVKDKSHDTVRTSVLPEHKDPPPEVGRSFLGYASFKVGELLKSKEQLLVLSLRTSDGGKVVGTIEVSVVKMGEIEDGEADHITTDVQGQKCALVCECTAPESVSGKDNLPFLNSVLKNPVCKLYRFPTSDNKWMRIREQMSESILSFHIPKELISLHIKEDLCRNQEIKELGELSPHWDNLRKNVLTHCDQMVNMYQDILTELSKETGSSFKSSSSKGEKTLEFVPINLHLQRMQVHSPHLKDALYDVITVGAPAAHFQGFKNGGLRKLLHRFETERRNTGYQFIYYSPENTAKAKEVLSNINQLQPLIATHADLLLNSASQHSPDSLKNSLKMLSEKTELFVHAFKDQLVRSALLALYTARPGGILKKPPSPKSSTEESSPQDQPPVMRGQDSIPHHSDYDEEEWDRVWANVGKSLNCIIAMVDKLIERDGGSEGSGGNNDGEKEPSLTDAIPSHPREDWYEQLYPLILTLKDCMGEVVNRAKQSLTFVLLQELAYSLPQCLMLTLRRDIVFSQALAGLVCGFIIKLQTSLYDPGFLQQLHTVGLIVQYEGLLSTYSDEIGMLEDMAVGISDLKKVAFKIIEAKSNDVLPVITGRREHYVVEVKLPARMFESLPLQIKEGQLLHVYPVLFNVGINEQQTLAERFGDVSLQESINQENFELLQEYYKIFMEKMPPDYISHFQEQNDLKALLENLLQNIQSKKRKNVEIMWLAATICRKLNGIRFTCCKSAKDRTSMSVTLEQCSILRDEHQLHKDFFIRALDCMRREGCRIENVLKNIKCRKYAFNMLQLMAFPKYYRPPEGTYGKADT
# B3: Mothers against decapentaplegic homolog 4 (Homo sapiens), Q13485 (parent)
# chain: B1 chain
# partner: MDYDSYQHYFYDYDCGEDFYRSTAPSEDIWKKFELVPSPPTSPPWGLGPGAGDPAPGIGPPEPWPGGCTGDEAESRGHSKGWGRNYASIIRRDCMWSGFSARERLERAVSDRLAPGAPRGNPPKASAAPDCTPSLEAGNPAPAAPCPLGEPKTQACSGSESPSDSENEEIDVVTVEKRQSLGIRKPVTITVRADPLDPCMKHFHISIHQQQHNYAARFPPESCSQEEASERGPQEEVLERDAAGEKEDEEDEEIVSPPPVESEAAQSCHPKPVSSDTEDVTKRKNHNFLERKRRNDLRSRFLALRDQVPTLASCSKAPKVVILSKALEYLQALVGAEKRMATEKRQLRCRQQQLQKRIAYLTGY
# B4: Mothers against decapentaplegic homolog 4 (Homo sapiens), Q13485 (parent)
# chain: B1 chain
# partner: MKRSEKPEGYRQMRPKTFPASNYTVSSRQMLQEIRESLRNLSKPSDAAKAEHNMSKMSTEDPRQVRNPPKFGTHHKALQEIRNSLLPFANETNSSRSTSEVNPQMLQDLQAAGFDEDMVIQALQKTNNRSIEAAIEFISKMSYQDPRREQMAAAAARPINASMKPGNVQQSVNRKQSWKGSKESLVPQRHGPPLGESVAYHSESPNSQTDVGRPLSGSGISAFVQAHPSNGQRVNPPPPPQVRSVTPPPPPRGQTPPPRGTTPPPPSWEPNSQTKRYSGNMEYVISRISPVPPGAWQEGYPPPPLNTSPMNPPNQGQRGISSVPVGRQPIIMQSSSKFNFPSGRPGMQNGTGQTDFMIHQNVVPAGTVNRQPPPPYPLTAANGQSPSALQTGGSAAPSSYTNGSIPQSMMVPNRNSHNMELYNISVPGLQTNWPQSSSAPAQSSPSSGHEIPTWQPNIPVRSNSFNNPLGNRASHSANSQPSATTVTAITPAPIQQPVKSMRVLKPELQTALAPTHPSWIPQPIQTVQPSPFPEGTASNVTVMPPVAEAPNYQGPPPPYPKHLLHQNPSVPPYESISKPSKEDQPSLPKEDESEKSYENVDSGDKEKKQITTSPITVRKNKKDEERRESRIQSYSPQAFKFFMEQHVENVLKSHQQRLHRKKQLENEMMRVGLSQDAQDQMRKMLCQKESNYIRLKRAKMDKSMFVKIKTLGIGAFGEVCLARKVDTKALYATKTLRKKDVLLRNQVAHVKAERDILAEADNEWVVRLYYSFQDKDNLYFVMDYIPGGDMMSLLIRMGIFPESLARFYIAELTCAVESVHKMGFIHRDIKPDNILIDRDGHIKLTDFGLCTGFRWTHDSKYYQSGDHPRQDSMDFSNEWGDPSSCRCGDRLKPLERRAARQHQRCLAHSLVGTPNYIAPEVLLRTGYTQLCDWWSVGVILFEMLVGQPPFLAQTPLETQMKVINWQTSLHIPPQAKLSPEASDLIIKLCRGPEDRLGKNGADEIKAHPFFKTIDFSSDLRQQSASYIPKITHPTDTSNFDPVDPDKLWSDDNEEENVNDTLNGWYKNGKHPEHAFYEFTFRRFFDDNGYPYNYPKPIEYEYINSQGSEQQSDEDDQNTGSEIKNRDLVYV
# B5: Mothers against decapentaplegic homolog 4 (Homo sapiens), Q13485 (parent)
# chain: B1 chain
# partner: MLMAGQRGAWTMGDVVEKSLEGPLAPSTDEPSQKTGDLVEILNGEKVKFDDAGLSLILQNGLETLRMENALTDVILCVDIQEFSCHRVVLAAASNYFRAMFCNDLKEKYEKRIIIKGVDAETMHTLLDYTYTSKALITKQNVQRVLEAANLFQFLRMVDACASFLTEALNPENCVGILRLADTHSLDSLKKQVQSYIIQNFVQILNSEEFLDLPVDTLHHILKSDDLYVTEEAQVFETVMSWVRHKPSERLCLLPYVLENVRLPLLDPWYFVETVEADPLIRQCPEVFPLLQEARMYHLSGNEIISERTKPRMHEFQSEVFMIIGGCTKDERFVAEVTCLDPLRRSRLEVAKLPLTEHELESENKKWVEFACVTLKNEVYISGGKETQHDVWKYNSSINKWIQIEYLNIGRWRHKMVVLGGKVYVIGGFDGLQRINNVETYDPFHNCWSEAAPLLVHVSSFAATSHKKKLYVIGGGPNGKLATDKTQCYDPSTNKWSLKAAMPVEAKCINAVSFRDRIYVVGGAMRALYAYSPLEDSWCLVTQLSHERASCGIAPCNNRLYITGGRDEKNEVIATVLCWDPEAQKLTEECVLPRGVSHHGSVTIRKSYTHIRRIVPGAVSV
# B6: Mothers against decapentaplegic homolog 4 (Homo sapiens), Q13485 (parent)
# chain: B1 chain
# partner: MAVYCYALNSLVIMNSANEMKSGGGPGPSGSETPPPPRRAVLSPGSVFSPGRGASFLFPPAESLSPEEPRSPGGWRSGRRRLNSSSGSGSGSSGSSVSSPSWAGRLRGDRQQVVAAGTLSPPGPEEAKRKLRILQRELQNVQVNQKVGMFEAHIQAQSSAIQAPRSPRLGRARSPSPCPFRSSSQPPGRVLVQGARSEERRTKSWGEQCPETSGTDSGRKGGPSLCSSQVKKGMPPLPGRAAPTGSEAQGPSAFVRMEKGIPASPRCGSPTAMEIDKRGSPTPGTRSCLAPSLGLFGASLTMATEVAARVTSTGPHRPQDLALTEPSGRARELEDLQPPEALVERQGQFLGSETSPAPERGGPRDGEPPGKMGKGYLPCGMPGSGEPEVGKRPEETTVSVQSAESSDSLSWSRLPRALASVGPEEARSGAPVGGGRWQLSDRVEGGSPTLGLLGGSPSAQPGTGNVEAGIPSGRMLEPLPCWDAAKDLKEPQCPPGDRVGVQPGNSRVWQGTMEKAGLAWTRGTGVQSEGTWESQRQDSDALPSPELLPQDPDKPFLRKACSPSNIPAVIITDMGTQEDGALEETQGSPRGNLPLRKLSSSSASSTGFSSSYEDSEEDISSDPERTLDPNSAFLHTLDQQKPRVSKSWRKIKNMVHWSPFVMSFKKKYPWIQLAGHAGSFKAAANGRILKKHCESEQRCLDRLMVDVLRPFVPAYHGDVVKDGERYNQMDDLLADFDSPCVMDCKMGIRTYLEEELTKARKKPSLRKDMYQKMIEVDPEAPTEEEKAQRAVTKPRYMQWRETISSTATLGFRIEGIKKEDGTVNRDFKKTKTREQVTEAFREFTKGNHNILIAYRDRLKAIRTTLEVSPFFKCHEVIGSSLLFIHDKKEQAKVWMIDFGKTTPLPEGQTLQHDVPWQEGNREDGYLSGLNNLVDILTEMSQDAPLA
# Variants of: B1
# Settings: with mp2k6_human MAP2K6, P52564
row,Variant,effect of a mutation on the interaction
1,R361C,with no effect

# Variants of: B1
# Settings: with mp2k6_human MAP2K6, P52564
# Remark: another data set of the same source
row,Variant,effect of a mutation on the interaction
1,D351H,with no effect

# Variants of: B2
# Settings: with inp4b_human INPP4B
row,Variant,effect of a mutation on the interaction
1,R361H,with no effect

# Variants of: B2
# Settings: with inp4b_human INPP4B
# Remark: another data set of the same source
row,Variant,effect of a mutation on the interaction
1,R361C,with no effect

# Variants of: B2
# Settings: with inp4b_human INPP4B
# Remark: another data set of the same source
row,Variant,effect of a mutation on the interaction
1,D351H,with no effect

# Variants of: B2
# Settings: with inp4b_human INPP4B
# Remark: another data set of the same source
row,Variant,effect of a mutation on the interaction
1,G386D,with no effect

# Variants of: B3
# Settings: with mycl_human MYCL
row,Variant,effect of a mutation on the interaction
1,G386D,with no effect

# Variants of: B3
# Settings: with mycl_human MYCL
# Remark: another data set of the same source
row,Variant,effect of a mutation on the interaction
1,R361C,with no effect

# Variants of: B3
# Settings: with mycl_human MYCL
# Remark: another data set of the same source
row,Variant,effect of a mutation on the interaction
1,R361H,with no effect

# Variants of: B3
# Settings: with mycl_human MYCL
# Remark: another data set of the same source
row,Variant,effect of a mutation on the interaction
1,D351H,with no effect

# Variants of: B4
# Settings: with lats1_human LATS1, O95835
row,Variant,effect of a mutation on the interaction
1,D351H,with no effect

# Variants of: B4
# Settings: with lats1_human LATS1, O95835
# Remark: another data set of the same source
row,Variant,effect of a mutation on the interaction
1,R361H,with no effect

# Variants of: B4
# Settings: with lats1_human LATS1, O95835
# Remark: another data set of the same source
row,Variant,effect of a mutation on the interaction
1,R361C,with no effect

# Variants of: B4
# Settings: with lats1_human LATS1, O95835
# Remark: another data set of the same source
row,Variant,effect of a mutation on the interaction
1,G386D,with no effect

# Variants of: B4
# Settings: with lats1_human LATS1, O95835
# Remark: another data set of the same source
row,Variant,effect of a mutation on the interaction
1,G386D,increasing interaction strength

# Variants of: B5
# Settings: with klhl6_human KLHL6, Q8WZ60
row,Variant,effect of a mutation on the interaction
1,G386D,with no effect

# Variants of: B5
# Settings: with klhl6_human KLHL6, Q8WZ60
# Remark: another data set of the same source
row,Variant,effect of a mutation on the interaction
1,G386D,causing an interaction

# Variants of: B5
# Settings: with klhl6_human KLHL6, Q8WZ60
# Remark: another data set of the same source
row,Variant,effect of a mutation on the interaction
1,D351H,with no effect

# Variants of: B5
# Settings: with klhl6_human KLHL6, Q8WZ60
# Remark: another data set of the same source
row,Variant,effect of a mutation on the interaction
1,R361C,with no effect

# Variants of: B5
# Settings: with klhl6_human KLHL6, Q8WZ60
# Remark: another data set of the same source
row,Variant,effect of a mutation on the interaction
1,R361H,with no effect

# Variants of: B6
# Settings: with ip3kb_human ITPKB
row,Variant,effect of a mutation on the interaction
1,G386D,with no effect

# Variants of: B6
# Settings: with ip3kb_human ITPKB
# Remark: another data set of the same source
row,Variant,effect of a mutation on the interaction
1,D351H,with no effect

# Variants of: B6
# Settings: with ip3kb_human ITPKB
# Remark: another data set of the same source
row,Variant,effect of a mutation on the interaction
1,R361H,with no effect

# Variants of: B6
# Settings: with ip3kb_human ITPKB
# Remark: another data set of the same source
row,Variant,effect of a mutation on the interaction
1,R361C,with no effect

# — IntAct's records for PubMed 35512704
